Experimental data published in patent US20170305994A1.
“And” between values parts separate entries of the source, which are not always exact repeats. Equal values may be shown once. Read-outs that look alike come from different tables or passages of the source. Blank lines part the entries; values can stand above or below the substance they belong to.

How the values were obtained:
[1] = target: T1, human DR3 (full length, on cells) (human) (UniProt Q93038); test: cell-based or functional assay
T1 sequence: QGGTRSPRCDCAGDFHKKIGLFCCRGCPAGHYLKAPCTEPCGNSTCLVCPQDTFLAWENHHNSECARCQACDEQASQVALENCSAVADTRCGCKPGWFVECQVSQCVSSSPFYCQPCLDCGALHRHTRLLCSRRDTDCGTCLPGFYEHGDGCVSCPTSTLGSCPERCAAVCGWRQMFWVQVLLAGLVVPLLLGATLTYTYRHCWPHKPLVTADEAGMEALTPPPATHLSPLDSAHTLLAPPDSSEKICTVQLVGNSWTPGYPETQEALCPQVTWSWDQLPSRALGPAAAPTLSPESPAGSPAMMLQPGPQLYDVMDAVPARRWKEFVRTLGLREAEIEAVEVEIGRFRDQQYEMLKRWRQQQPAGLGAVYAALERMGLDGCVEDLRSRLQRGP

[2] = target: human DR3 with the death domain deleted (ΔM339-P417 of SEQ ID NO:1), expressed on CHOK1SV cells (human) (UniProt Q93038); test: flow cytometry competition: Fab vs TL1A on hDR3-expressing CHO cells (isotype control; IC50 cell: No inhib)
[3] = target: T1, human DR3 (full length, on cells) (human); test: flow cytometry on CD3/CD28-stimulated human CD4+ T cells (isotype control)
TL1A (R&D Systems) [4] = target: TL1A (R&D Systems) (UniProt O95150); test: cell-based or functional assay
TL1A (R&D Systems) [5] = target: TL1A (R&D Systems) (UniProt O95150); test: cell-based or functional assay; remark: listed apart in the source

TL1A (R&D Systems), sequence (O95150 72-251 limits assumed): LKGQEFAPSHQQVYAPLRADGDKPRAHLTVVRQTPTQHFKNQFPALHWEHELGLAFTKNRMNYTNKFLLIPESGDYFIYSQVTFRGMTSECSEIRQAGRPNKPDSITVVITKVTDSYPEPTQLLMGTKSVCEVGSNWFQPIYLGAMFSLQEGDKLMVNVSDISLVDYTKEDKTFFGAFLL

max % inhibition of TNFalpha, average (n 8) [1]: -1.8% | max % inhibition of TNFalpha, donor 1 [1]: 1.24% | max % inhibition of TNFalpha, donor 2 [1]: 0.75%
Substance: 0158 (Hz-aTNP isotype control Fab)
max percentage inhibition [2]: 10%

Median Fluorescent Intensity [3]: 222 | Staining index (MFI Ab/MFI Isotype) [3]: 1
Substance: IgG1 isotype (antibody)

fold response, DR3 reporter, TL1A + 2.5 microg/ml MAb7441 (TL1A (R&D Systems) [4]): 3.7 fold | fold response, DR3 reporter, TL1A + 2.5 microg/ml MAb7441 (TL1A (R&D Systems) [5]): 2.3 fold and 2 fold and 1.8 fold
Substance: MAB7441 (R&D Systems), TL1A specific antibody
